# B1: pUCBMDAT: wild-type D-aminotransferase derived from Bacillus macerans AJ1617 (SEQ ID NO:2), expressed in E. coli (protein)
# chain: MAYSLWNDQIVEEGSIAISPEDRGYQFGDGIYEVIKVYNGNMFTAQEHIDRFYASAEKIRLVIPYTKDVLHKLLHELIEKNNLETGHVYFQITRGANSRNHVFPDASIPAVLTGNVKAGERAYENFEKGVKATFVEDIRWLRCDIKSLNLLGAVLAKQEAAEKGCYEAILHRGDIVTECSSANVYGIKDGKLYTHPANNFILNGITRQVILKCAEEINLPVIEEPMTKADLLTMDEIIVSSVSSEVTPVIDVDGNQIGAGVPGEWTRQLQQSFEAKLPLSMNTK
# modifications: Bacillus macerans
# B2: PUCBSDAT: wild-type D-transaminase derived from Bacillus sphaericus ATCC 10208 (SEQ ID NO:4), expressed in E. coli (protein, listed as Bacillus sphaericus)
# chain: MAYSLWNDQIVEEGSITISPEDRGYQFGDGIYEVIKVYNGHMFTAQEHIDRFYASAEKIRLVIPYTKDVLHKLLHDLIEKNNLNTGHVYFQITRGTTSRNHIFPDASVPAVLTGNVKTGERSIENFEKGVKATLVEDVRWLRCDIKSLNLLGAVLAKQEASEKGCYEAILHRGDIITECSSANVYGIKDGKLYTHPANNYILNGITRQVILKCAAEINLPVIEEPMTKGDLLTMDEIIVSSVSSEVTPVIDVDGQQIGAGVPGEWTRKLQKAFEAKLPISINA
# Tests used:
# [1] = Stability of IHOG in amination reaction solution with no microbial cell addition; type: physicochemical; details: 300 mM 4R,S-IHOG, pH 8.3, 37° C., no cells
# Protocol: Another reason therefor would be instability of IHOG, the material for producing monatin, in a certain pH. In order to test stability of IHOG in the amination reaction of IHOG, the present inventors measured a change of IHOG concentration with time in an amination reaction solution of IHOG with no microbial cell addition. The reaction was performed by shaking a test tube containing 1 ml of reaction solution composed of 100 mM potassium phosphate buffer (pH 8.3), 300 mM 4R,S-IHOG, 600 mM DL-Ala and 1 mM pyridoxal-5′-phosphate at 37° C. for 40 hours. As a result, a residual ratio of 4R,S-IHOG was decreased to 81% after 16 hours, 70% after 24 hours and 57% after 40 hours, respectively. […] It is presumed that this phenomenon is due to a decomposition reaction where IHOG is decomposed into 3-indole-pyruvic acid and pyruvic acid and a cyclization reaction of IHOG, to consume IHOG in the reaction solution before being converted to monatin. That is, the reaction catalyzed by the D-aminotransferase derived from the genus Bacillus or Paenibacillus is not sufficiently fast, and a part of IHOG becomes unavailable for the amination due to the decomposition and the cyclization before the amination. This is thought to be one reason why (2R,4R) monatin can not be efficiently produced.
# [2] = DAT activity of mutated BMDAT: transamination from D-alanine to α-ketoglutaric acid, coupled lactate dehydrogenase assay; type: biochemical, E. coli; details: 10 mM D-alanine, 10 mM α-ketoglutaric acid, pH 8.0, 30° C., cell sonicate supernatant
# Protocol: E. coli transformants containing each plasmid with mutated BMDAT gene or pUCBMDAT were inoculated to 3 mL of casamino acid medium (0.5 g/dL of ammonium sulfate, 0.14 g/dL of KH2PO4, 0.23 g/dL of citrate 2Na.3H2O, 0.1 g/dL of MgSO4.7H2O, 2 mg/dl of FeSO4, 2 mg/dl of MnSO4, 2 mg/dL of pyridoxine hydrochloride, 0.1 mg/dL of thiamine, 1 g/dL of casamino acid, 0.3 g/dL of glycerol, pH 7.5) containing 0.1 mg/mL of ampicillin and 0.1 mM IPTG. The medium was then cultured with shaking at 37° C. for 16 hours. Cells were collected from 1 mL of the cultured medium, washed, suspended in 1 mL of 20 mM Tris-HCl (pH 7.6), and ultrasonically disrupted at 4° C. for 30 min. The sonicates were centrifuged at 15,000 rpm for 5 minutes, and the supernatant thereof was used as an enzyme catalyst. For the measurement of the D-aminotransferase activity (hereinbelow referred to as DAT activity), the transamination activity with D-alanine as the amino donor to α-ketoglutaric acid was enzymatically measured by analyzing pyruvic acid produced from D-alanine as the reaction proceeds.
# Reaction conditions: 100 mM Tris-HCl (pH 8.0), 0.2 mM NADH, 0.1 mM pyridoxal-5′-phosphate, 5 U/mL lactate dehydrogenase, 10 mM D-alanine, 10 mM α-ketoglutaric acid, 30° C. A reduction of absorbance at 340 nm was measured.
# [3] = IHOG amination with washed cells of BMDAT-expressing E. coli (Example 3); type: biochemical; details: 50 mM IHOG, 200 mM D-alanine, pH 8.0, 33° C., 16 hours, cells 2% (w/v)
# Protocol: (§1) E. coli transformants with pUCBMDAT were inoculated to 3 mL of LB medium (1 g/dL of bacto tryptone, 0.5 g/dL of yeast extract and 1 g/dL of NaCl) containing 0.1 mg/mL of ampicillin and 0.1 mM isopropyl-1-thio-β-D-galactopyranoside (IPTG). The medium was then cultured with shaking at 37° C. for 16 hours. Cells were collected from the cultured medium and washed to prepare cells of the BMDAT-expressing E. coli.
# The microbial cells prepared in (1) above were suspended at 2% (w/v) in 1 mL of a reaction liquid composed of 100 mM Tris-HCl (pH 8.0), 50 mM IHOG, 200 mM D-alanine, 1 mM pyridoxal-5′-phosphate and 0.5% (v/v) toluene. The suspension was then incubated with shaking at 33° C. for 16 hours, and the amount of 2R-monatin thus produced was determined. As a result, 16.4 mM of (2R,4S)-monatin and 17.0 mM of (2R,4R)-monatin were produced.
# [4] = Amination reaction of PHOG with mutated BMDAT-expressing E. coli (Example 5); type: biochemical; details: 50 mM 4R,S-PHOG, 16 hours
# Protocol: (§2) E. coli transformants containing each plasmid with mutated BMDAT gene or pUCBMDAT were inoculated to 3 mL of LB medium (1 g/dL of bacto tryptone, 0.5 g/dL of yeast extract and 1 g/dL of NaCl) containing 0.1 mg/mL of ampicillin and 0.1 mM isopropyl-1-thio-β-D-galactopyranoside (IPTG). The medium was then cultured with shaking at 37° C. for 16 hours. Cells were harvested from the cultured medium and washed Expression of each mutated BMDAT was confirmed with SDS-PAGE. Cells harvested form 250 μL of the cultured broth were resuspended in 500 μL of an SDS-PAGE sample buffer and boiled for 10 minutes for cell lysis and denaturation. 5 to 10 μL of the supernatant obtained by centrifugation (10,000×g, 10 min.) was subjected to SDS-PAGE.
# (§3) Using a series of mutated BMDAT-expressing E. coli strains prepared in Example 4 as a catalyst, 2R-monatin was produced from 4R,S-IHOG, and 2R-PHG was produced from 4R,S-PHOG. The microbial cells collected by centrifuging 400 μL of the cultured medium were suspended in a reaction solution having the following composition.
# Reaction solution of PHOG: 100 mM Tris-HCl (pH 8.0), 50 mM 4R,S-PHOG, 200 mM D-alanine, 1 mM pyridoxal-5′-phosphate and 0.5% (v/v) toluene
# (§4) The suspension was incubated at 30° C. for 16 hours, and then the amount of 2R-monatin and 2R-PHG thus produced were determined.
# [5] = PHOG amination reaction with mutated BMDAT-expressing E. coli (Example 10); type: biochemical; details: 100 mM 4R,S-PHOG, 16 hours
# Protocol: as §3, with “9,” for “4 as a catalyst,”, “prepared” for “collected”
# Reaction solution of PHOG: 100 mM Tris-HCl (pH 8.0), 100 mM 4R,S-PHOG, 400 mM D-alanine, 1 mM pyridoxal-5′-phosphate and 0.5% (v/v) toluene
# (§5) The suspension was incubated at 30° C. for 16 hours, and then the amount of 2R-monatin and 2R-PHG thus produced were analyzed.
# [6] = Amination reaction of IHOG with mutated BMDAT-expressing E. coli (Example 5); type: biochemical; details: 50 mM 4R,S-IHOG, 16 hours
# Protocol: as §2, §3
# (§6) Reaction solution of IHOG: 100 mM Tris-HCl (pH 8.0), 50 mM 4R,S-IHOG, 200 mM D-alanine, 1 mM pyridoxal-5′-phosphate and 0.5% (v/v) toluene
# as §4
# [7] = IHOG amination reaction with mutated BMDAT-expressing E. coli (Example 10); type: biochemical; details: 100 mM 4R,S-IHOG, 16 hours
# Protocol: as §3, with “9,” for “4 as a catalyst,”, “prepared” for “collected”
# Reaction solution of IHOG: 100 mM Tris-HCl (pH 8.0), 100 mM 4R,S-IHOG, 400 mM D-alanine, 1 mM pyridoxal-5′-phosphate and 0.5% (v/v) toluene
# as §5
# [8] = PHOG amination with washed cells of BMDAT-expressing E. coli (Example 3); type: biochemical; details: 50 mM PHOG, 200 mM D-alanine, pH 8.0
# Protocol: as §1
# The reaction was also performed in a reaction liquid composed of 100 mM Tris-HCl (pH 8.0), 50 mM PHOG, 200 mM D-alanine, 1 mM pyridoxal-5′-phosphate and 0.5% (v/v) toluene. The amount of 2R-PHG thus produced after the incubation was determined. As a result, 17.1 mM of (2R,4S)-PHG and 19.2 mM of (2R,4R)-PHG were produced.
# [9] = IHOG amination with washed cells of BSDAT-expressing E. coli (Example 6); type: biochemical; details: 50 mM IHOG, 200 mM D-alanine, pH 7.6, 30° C., 18 hours, cells 5% (w/v)
# Protocol: E. coli transformants containing pUCBSDAT were cultivated in the LB medium (1 g/dL of bacto tryptone, 0.5 g/dL of yeast extract and 1 g/dL of NaCl) containing 0.1 mg/mL of ampicillin at 37° C. for 16 hours. Subsequently, 1 mL of thus obtained broth was added to a 500 mL Sakaguchi flask in which contains 50 mL of the LB medium, and main cultivation was performed at 37° C. After 2.5 hours of cultivation, isopropyl-1-thio-β-D-galactopyranoside (IPTG) was added thereto at a final concentration of 1 mM, and the cultivation was performed for additional 4 hours. Cells were harvested from the cultured medium and washed to prepare the cells of BSDAT-expressing E. coli.
# The microbial cells prepared in the above (2) were suspended at 5% (w/v) in 1 mL of a reaction liquid composed of 100 mM Tris-HCl (pH 7.6), 50 mM IHOG, 200 mM D-alanine, 1 mM pyridoxal-5′-phosphate and 0.5% (v/v) toluene. One ml of the suspension was then transferred to a 10 mL test tube, and incubated with shaking at 30° C. for 18 hours. After the incubation, the amount of 2R-monatin thus produced was determined. As a result, 13.8 mM (2R,4R)-monatin and 12.7 mM (2R,4S)-monatin were produced from IHOG.
# [10] = IHOG amination reaction with mutated BSDAT-expressing E. coli (Example 8); type: biochemical; details: 50 mM 4R,S-IHOG, 16 hours
# Protocol: E. coli transformants containing each plasmid with mutated BSDAT gene or pUCBSDAT were inoculated to 3 mL of LB medium (1 g/dL of bacto tryptone, 0.5 g/dL of yeast extract and 1 g/dL of NaCl) containing 0.1 mg/mL of ampicillin and 0.1 mM isopropyl-1-thio-β-D-galactopyranoside (IPTG). The medium was then cultured with shaking at 37° C. for 16 hours. Cells were collected from the cultured medium and washed to prepare the BSDAT-expressing E. coli. Expression of each mutated BSDAT was confirmed by SDS-PAGE. The cells harvested from 250 μL of the cultured medium were resuspended in 500 μL of an SDS-PAGE sample buffer and boiled for 10 minutes for cell lysis and denaturation, and 5 to 10 μL of the supernatant obtained by centrifugation (10,000×g, 10 min.) was subjected to SDS-PAGE.
# Using a series of mutated BSDAT-expressing E. coli strains prepared in Example 7, 2R-monatin was produced from 4R,S-IHOG. The microbial cells prepared by centrifuging 400 μL of the cultured medium were suspended in the reaction solution having the following composition.
# as §6
# The suspension was incubated at 30° C. for 16 hours, and then the amount of 2R-monatin thus produced was analyzed.
# [11] = 200 mM D-alanine, pH 8.0, 30° C.
# [12] = 400 mM D-alanine, pH 8.0, 30° C.
molecule,measurement,setting,value
"O=C(O)C(=O)CC(O)(Cc1c[nH]c2ccccc12)C(=O)O (racemic) [4R,S-IHOG, 4-(indol-3-ylmethyl)-4-hydroxy-2-oxoglutaric acid]","residual ratio of 4R,S-IHOG",[1]; after 16 hours,81%
same,"residual ratio of 4R,S-IHOG",[1]; after 24 hours,70%
B1,DAT activity,[2],6.3 U/mg
same,"(2R,4R)-monatin produced",[3],17.0 mM
same,"(2R,4S)-monatin produced",[3],16.4 mM
same,"2R,4R-PHG",[4]; [11],19.2 mM
same,"2R,4S-PHG",[4]; [11],17.1 mM
same,"4R selectivity (ratio of (2R,4R) isomer out of total 2R-PHG)",[4]; 30° C.,53%
same,"2R,4R-PHG",[5]; [12],34.2 mM
same,"2R,4S-PHG",[5]; [12],34.9 mM
same,4R selectivity,[5]; 30° C.,49%
same,"2R,4R-monatin",[6]; [11],17.0 mM
same,"2R,4S-monatin",[6]; [11],16.4 mM
same,"4R selectivity (ratio of (2R,4R) isomer out of total 2R-monatin)",[6]; 30° C.,51%
same,"2R,4R-monatin",[7]; [12],19.1 mM
same,"2R,4S-monatin",[7]; [12],18.3 mM
same,4R selectivity,[7]; 30° C.,51%
same,"(2R,4R)-PHG produced",[8],19.2 mM
same,"(2R,4S)-PHG produced",[8],17.1 mM
B2,"(2R,4R)-monatin produced",[9],13.8 mM
same,"(2R,4S)-monatin produced",[9],12.7 mM
same,"2R,4R-monatin",[10]; [11],13.8 mM
same,"2R,4S-monatin",[10]; [11],12.7 mM
same,4R selectivity,[10]; 30° C.,52%
